Source: the supplement of paper PMC11908140

B1: library; numbered along this chain (parent)
chain: MRKPRAAVGSGHRKQAASQEGRQKHAKNNSQAKPSACDGLARQPEEVVLQASVSSYHLFRDVAEVTAFRGSLLSWYDQEKRDLPWRRRAEDEMDLDRRAYAVWVSEVMLQQTQVATVINYYTGWMQKWPTLQDLASASLEEVNQLWAGLGYYSRGRRLQEGARKVVEELGGHMPRTAETLQQLLPGVGRYTAGAIASIAFGQATGVVDGNVARVLCRVRAIGADPSSTLVSQQLWGLAQQLVDPARPGDFNQAAMELGATVCTPQRPLCSQCPVESLCRARQRVEQEQLLASGSLSGSPDVEECAPNTGQCHLCLPPSEPWDQTLGVVNFPRKASRKPPREESSATCVLEQPGALGAQILLVQRPNSGLLAGLWEFPSVTWEPSEQLQRKALLQELQRWAGPLPATHLRHLGEVVHTFSHIKLTYQVYGLALEGQTPVTTVPPGARWLTQEEFHTAAVSTAMKKVFRVYQGQQPGTCMGSKRSQVSSPCSRKKPRMGQQVLDNFFRSHISTDAHSLNSAAQ

Variants of: B1
Assay: 8OG:A repair function score (normalized; synonymous = 0, nonsense = -1) (normalized log-likelihood score); higher = more repair activity (WT-like)
Conditions: with 8OG:A DNA repair reporter (GFP) in HEK-293 MUTYH KO cells
How it was run: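 GFP+ (repair) and GFP− bins of viable mCherry+ cells were collected at 72 h from MUTYH knockout HEK-293 cells bearing lentiviral MUTYH cDNA NNN codon-scan libraries in 10 pg/ml doxycycline, co-transfected with an 8OG:A GFP repair reporter and mCherry. Tile amplicons were sequenced, and per-tile Rosace fitness scores were normalized to a repair function score anchored on synonymous and nonsense distributions. Synonymous medians were set to 0 and nonsense to -1, with variants under 300 counts per million at the start removed.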
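Note: cells sorted at 72 h after reporter transfection.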

Variant | 8OG:A repair function score
MRKPRAAVGSGHRKQAASQEGRQKHAKNNSQAKPSACDGLARQPEEVVLQASVSSYHLFRDVAEVTAFRGSLLSWYDQEKRDLPWRRRAEDEMDLDRRAYAVWVSEVMLQQTQVATVINYYTGWMQKWPTLQDLASASLEEVNQLWAGLGYYSRGRRLQEGARKVVEELGGHMPRTAETLQQLLPGVGRYTAGAIASIAFGQATGVVDGNVARVLCRVRAIGADPSSTLVSQQLWGLAQQLVDPARPGDFNQAAMELGATVCTPQRPLCSQCPVESLCRARQRVEQEQLLASGSLSGSPDVEECAPNTGQCHWCLPPSEPWDQTLGVVNFPRKASRKPPREESSATCVLEQPGALGAQILLVQRPNSGLLAGLWEFPSVTWEPSEQLQRKALLQELQRWAGPLPATHLRHLGEVVHTFSHIKLTYQVYGLALEGQTPVTTVPPGARWLTQEEFHTAAVSTAMKKVFRVYQGQQPGTCMGSKRSQVSSPCSRKKPRMGQQVLDNFFRSHISTDAHSLNSAAQ [L313W] | -0.257
MRKPRAAVGSGHRKQAASQEGRQKHAKNNSQAKPSACDGLARQPEEVVLQASVSSYHLFRDVAEVTAFRGSLLSWYDQEKRDLPWRRRAEDEMDLDRRAYAVWVSEVMLQQTQVATVINYYTGWMQKWPTLQDLASASLEEVNQLWAGLGYYSRGRRLQEGARKVVEELGGHMPRTAETLQQLLPGVGRYTAGAIASIAFGQATGVVDGNVARVLCRVRAIGADPSSTLVSQQLWGLAQQLVDPARPGDFNQAAMELGATVCTPQRPLCSQCPVESLCRARQRVEQEQLLASGSLSGSPDVEECAPNTGQCHYCLPPSEPWDQTLGVVNFPRKASRKPPREESSATCVLEQPGALGAQILLVQRPNSGLLAGLWEFPSVTWEPSEQLQRKALLQELQRWAGPLPATHLRHLGEVVHTFSHIKLTYQVYGLALEGQTPVTTVPPGARWLTQEEFHTAAVSTAMKKVFRVYQGQQPGTCMGSKRSQVSSPCSRKKPRMGQQVLDNFFRSHISTDAHSLNSAAQ [L313Y] | -0.104
MRKPRAAVGSGHRKQAASQEGRQKHAKNNSQAKPSACDGLARQPEEVVLQASVSSYHLFRDVAEVTAFRGSLLSWYDQEKRDLPWRRRAEDEMDLDRRAYAVWVSEVMLQQTQVATVINYYTGWMQKWPTLQDLASASLEEVNQLWAGLGYYSRGRRLQEGARKVVEELGGHMPRTAETLQQLLPGVGRYTAGAIASIAFGQATGVVDGNVARVLCRVRAIGADPSSTLVSQQLWGLAQQLVDPARPGDFNQAAMELGATVCTPQRPLCSQCPVESLCRARQRVEQEQLLASGSLSGSPDVEECAPNTGQCHLNLPPSEPWDQTLGVVNFPRKASRKPPREESSATCVLEQPGALGAQILLVQRPNSGLLAGLWEFPSVTWEPSEQLQRKALLQELQRWAGPLPATHLRHLGEVVHTFSHIKLTYQVYGLALEGQTPVTTVPPGARWLTQEEFHTAAVSTAMKKVFRVYQGQQPGTCMGSKRSQVSSPCSRKKPRMGQQVLDNFFRSHISTDAHSLNSAAQ [C314N] | -0.553
MRKPRAAVGSGHRKQAASQEGRQKHAKNNSQAKPSACDGLARQPEEVVLQASVSSYHLFRDVAEVTAFRGSLLSWYDQEKRDLPWRRRAEDEMDLDRRAYAVWVSEVMLQQTQVATVINYYTGWMQKWPTLQDLASASLEEVNQLWAGLGYYSRGRRLQEGARKVVEELGGHMPRTAETLQQLLPGVGRYTAGAIASIAFGQATGVVDGNVARVLCRVRAIGADPSSTLVSQQLWGLAQQLVDPARPGDFNQAAMELGATVCTPQRPLCSQCPVESLCRARQRVEQEQLLASGSLSGSPDVEECAPNTGQCHLALPPSEPWDQTLGVVNFPRKASRKPPREESSATCVLEQPGALGAQILLVQRPNSGLLAGLWEFPSVTWEPSEQLQRKALLQELQRWAGPLPATHLRHLGEVVHTFSHIKLTYQVYGLALEGQTPVTTVPPGARWLTQEEFHTAAVSTAMKKVFRVYQGQQPGTCMGSKRSQVSSPCSRKKPRMGQQVLDNFFRSHISTDAHSLNSAAQ [C314A] | -0.468
MRKPRAAVGSGHRKQAASQEGRQKHAKNNSQAKPSACDGLARQPEEVVLQASVSSYHLFRDVAEVTAFRGSLLSWYDQEKRDLPWRRRAEDEMDLDRRAYAVWVSEVMLQQTQVATVINYYTGWMQKWPTLQDLASASLEEVNQLWAGLGYYSRGRRLQEGARKVVEELGGHMPRTAETLQQLLPGVGRYTAGAIASIAFGQATGVVDGNVARVLCRVRAIGADPSSTLVSQQLWGLAQQLVDPARPGDFNQAAMELGATVCTPQRPLCSQCPVESLCRARQRVEQEQLLASGSLSGSPDVEECAPNTGQCHLILPPSEPWDQTLGVVNFPRKASRKPPREESSATCVLEQPGALGAQILLVQRPNSGLLAGLWEFPSVTWEPSEQLQRKALLQELQRWAGPLPATHLRHLGEVVHTFSHIKLTYQVYGLALEGQTPVTTVPPGARWLTQEEFHTAAVSTAMKKVFRVYQGQQPGTCMGSKRSQVSSPCSRKKPRMGQQVLDNFFRSHISTDAHSLNSAAQ [C314I] | -0.652
MRKPRAAVGSGHRKQAASQEGRQKHAKNNSQAKPSACDGLARQPEEVVLQASVSSYHLFRDVAEVTAFRGSLLSWYDQEKRDLPWRRRAEDEMDLDRRAYAVWVSEVMLQQTQVATVINYYTGWMQKWPTLQDLASASLEEVNQLWAGLGYYSRGRRLQEGARKVVEELGGHMPRTAETLQQLLPGVGRYTAGAIASIAFGQATGVVDGNVARVLCRVRAIGADPSSTLVSQQLWGLAQQLVDPARPGDFNQAAMELGATVCTPQRPLCSQCPVESLCRARQRVEQEQLLASGSLSGSPDVEECAPNTGQCHLMLPPSEPWDQTLGVVNFPRKASRKPPREESSATCVLEQPGALGAQILLVQRPNSGLLAGLWEFPSVTWEPSEQLQRKALLQELQRWAGPLPATHLRHLGEVVHTFSHIKLTYQVYGLALEGQTPVTTVPPGARWLTQEEFHTAAVSTAMKKVFRVYQGQQPGTCMGSKRSQVSSPCSRKKPRMGQQVLDNFFRSHISTDAHSLNSAAQ [C314M] | -0.46
MRKPRAAVGSGHRKQAASQEGRQKHAKNNSQAKPSACDGLARQPEEVVLQASVSSYHLFRDVAEVTAFRGSLLSWYDQEKRDLPWRRRAEDEMDLDRRAYAVWVSEVMLQQTQVATVINYYTGWMQKWPTLQDLASASLEEVNQLWAGLGYYSRGRRLQEGARKVVEELGGHMPRTAETLQQLLPGVGRYTAGAIASIAFGQATGVVDGNVARVLCRVRAIGADPSSTLVSQQLWGLAQQLVDPARPGDFNQAAMELGATVCTPQRPLCSQCPVESLCRARQRVEQEQLLASGSLSGSPDVEECAPNTGQCHLGLPPSEPWDQTLGVVNFPRKASRKPPREESSATCVLEQPGALGAQILLVQRPNSGLLAGLWEFPSVTWEPSEQLQRKALLQELQRWAGPLPATHLRHLGEVVHTFSHIKLTYQVYGLALEGQTPVTTVPPGARWLTQEEFHTAAVSTAMKKVFRVYQGQQPGTCMGSKRSQVSSPCSRKKPRMGQQVLDNFFRSHISTDAHSLNSAAQ [C314G] | -0.468
MRKPRAAVGSGHRKQAASQEGRQKHAKNNSQAKPSACDGLARQPEEVVLQASVSSYHLFRDVAEVTAFRGSLLSWYDQEKRDLPWRRRAEDEMDLDRRAYAVWVSEVMLQQTQVATVINYYTGWMQKWPTLQDLASASLEEVNQLWAGLGYYSRGRRLQEGARKVVEELGGHMPRTAETLQQLLPGVGRYTAGAIASIAFGQATGVVDGNVARVLCRVRAIGADPSSTLVSQQLWGLAQQLVDPARPGDFNQAAMELGATVCTPQRPLCSQCPVESLCRARQRVEQEQLLASGSLSGSPDVEECAPNTGQCHLKLPPSEPWDQTLGVVNFPRKASRKPPREESSATCVLEQPGALGAQILLVQRPNSGLLAGLWEFPSVTWEPSEQLQRKALLQELQRWAGPLPATHLRHLGEVVHTFSHIKLTYQVYGLALEGQTPVTTVPPGARWLTQEEFHTAAVSTAMKKVFRVYQGQQPGTCMGSKRSQVSSPCSRKKPRMGQQVLDNFFRSHISTDAHSLNSAAQ [C314K] | -0.485
MRKPRAAVGSGHRKQAASQEGRQKHAKNNSQAKPSACDGLARQPEEVVLQASVSSYHLFRDVAEVTAFRGSLLSWYDQEKRDLPWRRRAEDEMDLDRRAYAVWVSEVMLQQTQVATVINYYTGWMQKWPTLQDLASASLEEVNQLWAGLGYYSRGRRLQEGARKVVEELGGHMPRTAETLQQLLPGVGRYTAGAIASIAFGQATGVVDGNVARVLCRVRAIGADPSSTLVSQQLWGLAQQLVDPARPGDFNQAAMELGATVCTPQRPLCSQCPVESLCRARQRVEQEQLLASGSLSGSPDVEECAPNTGQCHLELPPSEPWDQTLGVVNFPRKASRKPPREESSATCVLEQPGALGAQILLVQRPNSGLLAGLWEFPSVTWEPSEQLQRKALLQELQRWAGPLPATHLRHLGEVVHTFSHIKLTYQVYGLALEGQTPVTTVPPGARWLTQEEFHTAAVSTAMKKVFRVYQGQQPGTCMGSKRSQVSSPCSRKKPRMGQQVLDNFFRSHISTDAHSLNSAAQ [C314E] | -0.317
MRKPRAAVGSGHRKQAASQEGRQKHAKNNSQAKPSACDGLARQPEEVVLQASVSSYHLFRDVAEVTAFRGSLLSWYDQEKRDLPWRRRAEDEMDLDRRAYAVWVSEVMLQQTQVATVINYYTGWMQKWPTLQDLASASLEEVNQLWAGLGYYSRGRRLQEGARKVVEELGGHMPRTAETLQQLLPGVGRYTAGAIASIAFGQATGVVDGNVARVLCRVRAIGADPSSTLVSQQLWGLAQQLVDPARPGDFNQAAMELGATVCTPQRPLCSQCPVESLCRARQRVEQEQLLASGSLSGSPDVEECAPNTGQCHLDLPPSEPWDQTLGVVNFPRKASRKPPREESSATCVLEQPGALGAQILLVQRPNSGLLAGLWEFPSVTWEPSEQLQRKALLQELQRWAGPLPATHLRHLGEVVHTFSHIKLTYQVYGLALEGQTPVTTVPPGARWLTQEEFHTAAVSTAMKKVFRVYQGQQPGTCMGSKRSQVSSPCSRKKPRMGQQVLDNFFRSHISTDAHSLNSAAQ [C314D] | -0.532
MRKPRAAVGSGHRKQAASQEGRQKHAKNNSQAKPSACDGLARQPEEVVLQASVSSYHLFRDVAEVTAFRGSLLSWYDQEKRDLPWRRRAEDEMDLDRRAYAVWVSEVMLQQTQVATVINYYTGWMQKWPTLQDLASASLEEVNQLWAGLGYYSRGRRLQEGARKVVEELGGHMPRTAETLQQLLPGVGRYTAGAIASIAFGQATGVVDGNVARVLCRVRAIGADPSSTLVSQQLWGLAQQLVDPARPGDFNQAAMELGATVCTPQRPLCSQCPVESLCRARQRVEQEQLLASGSLSGSPDVEECAPNTGQCHLFLPPSEPWDQTLGVVNFPRKASRKPPREESSATCVLEQPGALGAQILLVQRPNSGLLAGLWEFPSVTWEPSEQLQRKALLQELQRWAGPLPATHLRHLGEVVHTFSHIKLTYQVYGLALEGQTPVTTVPPGARWLTQEEFHTAAVSTAMKKVFRVYQGQQPGTCMGSKRSQVSSPCSRKKPRMGQQVLDNFFRSHISTDAHSLNSAAQ [C314F] | -0.764
MRKPRAAVGSGHRKQAASQEGRQKHAKNNSQAKPSACDGLARQPEEVVLQASVSSYHLFRDVAEVTAFRGSLLSWYDQEKRDLPWRRRAEDEMDLDRRAYAVWVSEVMLQQTQVATVINYYTGWMQKWPTLQDLASASLEEVNQLWAGLGYYSRGRRLQEGARKVVEELGGHMPRTAETLQQLLPGVGRYTAGAIASIAFGQATGVVDGNVARVLCRVRAIGADPSSTLVSQQLWGLAQQLVDPARPGDFNQAAMELGATVCTPQRPLCSQCPVESLCRARQRVEQEQLLASGSLSGSPDVEECAPNTGQCHLLLPPSEPWDQTLGVVNFPRKASRKPPREESSATCVLEQPGALGAQILLVQRPNSGLLAGLWEFPSVTWEPSEQLQRKALLQELQRWAGPLPATHLRHLGEVVHTFSHIKLTYQVYGLALEGQTPVTTVPPGARWLTQEEFHTAAVSTAMKKVFRVYQGQQPGTCMGSKRSQVSSPCSRKKPRMGQQVLDNFFRSHISTDAHSLNSAAQ [C314L] | -0.616
